Data published in publication doi:10.1101/2025.09.11.675134, “Biodistribution-Driven Discovery Identifies a Glycosidase-Cleavable Linker to Reprogram Radiotheranostics” (bioRxiv, 2025).

Legend:
AR42J xenografts = assay: Dosimetry estimates of 225Ac-labeled variants from biodistribution data; format: in vivo, athymic nu/nu mice
Excerpt: To evaluate the organ-level radiation absorbed dose resulting from different DOTA-TATE derivatives, we calculated the total effective dose per unit of injected activity (Eff Dose/IA, mSv/MBq) for ^225Ac-labeled variants based on biodistribution data in AR42J xenograft-bearing mice (Tables S5).
Estimated absorbed doses for individual organs for ^225Ac- and ^86Y-labeled DOTA-TATE variants were derived from residence times calculated using %IA/g data from biodistribution studies. The time–activity curves incorporated data from both radionuclides to provide complete coverage of early and late time points. Details of the dosimetry methodology, including time–activity curve construction, integration approach, decay assumptions, and conversion to effective dose, are provided in the Supplementary Information.
Dosimetry: The dosimetry was calculated by measuring the residence time per gram for each organ using the percent injected activity per gram (%IA/g) data collected for the biodistribution study. Because two biodistribution data sample groups were collected, one for the 86Y and the other for the 225Ac variant of the three DOTA-TATE variants (DOTA-TATE, DOTA-MVK(ε)- TATE, and DOTA-β-Gal-TATE) the %IA/g time activity curves (TAC) of the 86Y variant were merged with the 225Ac TACs. This was possible because of the difference in half lives between 86Y and 225Ac being 14.74 and 237.8 hours respectively setting the measurement time points to be 1, 4 and 24 hours for the 86Y ligands and 24, 96 hours for 225Ac. The full time activity curve is thus made up of the 1 and 4 hour time points of the 86Y %IA/g data points, an average of the common 24 hour time point of the 86Y and 225Ac %IA/g data points and the last 96 hour %IA/g time point of the 225Ac samples. The full 4 time points of 1, 4, 24, and 96 hours making up the […]
from which the residence times were calculated.
The integration of the TAC was performed using trapezoidal interpolation between time points.
The first time point assumed constant activity and a decay curve with the half life of the radioisotope was used to estimate activity beyond 96 hours. The average %IA/g was used for each tissue sample for each time point and the resulting standard deviation of the average was then used as the error estimate per time point to propagate through the residence time calculation.
Using the residence time for each TAC, the dose was calculated by looking up the dose per decay for each alpha, beta (positron and electron from nuclear beta decay) and electron emission listed in the nuclear data sheets provided by the Brookhaven National Laboratory National Nuclear Data Center. Since the 225Ac decays via a complicated decay chain, it is assumed that the dose from the daughters remains in the tissue assuming no biological dissemination once the 225Ac decays breaking the bonds of the DOTA-TATE ligand. The following mean dose per decay were used. For 225Ac, 27.58MeV/Bq-s for alpha emissions, 1.33MeV/Bq-s for beta plus electron emissions. For 86Y, 0.219 MeV/Bq-s for beta and electron emissions. Gamma emissions were ignored because of the small size of the tissue samples have small gamma absorption effects which would contribute negligibly to the dose calculation. Furthermore, dosimetry estimate […]
inter organ activity can be calculated(62).
To estimate the effective dose in mSv/MBq, a radiological factor of 5 was used to multiply the dose calculated from the alpha ionizations while a factor of 1 was used for the beta and electron ionizations to convert from mGy/MBq to mSv/MBq (63, 64).

[1] = Histopathology (H&E) after two-cycle therapy; format: in vivo, athymic nu/nu mice
Protocol: To further assess tissue-level toxicity at the conclusion of the two-cycle therapy study, kidneys, livers, spleens, and tumors from representative mice were collected and evaluated histologically using hematoxylin and eosin (H&E) staining. Microscopic pathology was assessed and recorded in the MHL Pathology Database (Zaphod) according to a standardized five-point grading scale (normal, minimal, mild, moderate, marked). Terminology and criteria for pathological findings were consistent with the INHAND (International Harmonization of Nomenclature and Diagnostic Criteria) guidelines developed by the Society of Toxicologic Pathology.
At the conclusion of the two-cycle therapy study, kidneys, livers, spleens, and tumors from representative mice were collected and processed for histological evaluation using hematoxylin and eosin (H&E) staining. Microscopic pathology was assessed and recorded in the MHL Pathology Database (Zaphod) using a standardized five-point ordinal grading system (normal, minimal, mild, moderate, marked). Terminology and diagnostic criteria were consistent with the International Harmonization of Nomenclature and Diagnostic Criteria (INHAND) guidelines established by the Society of Toxicologic Pathology (https://www.toxpath.org/inhand.asp)([57]).

[2] = 225Ac-labeled, AR42J xenografts, from biodistribution time-activity curves, alpha factor 5, mean, n = 4–5
[3] = 225Ac-labeled, dosimetry estimate
[4] = absorbed-dose estimate at 148 kBq per mouse

SMILES	Absorbed dose to kidney (AR42J xenografts; mouse, in vivo) [Gy]	Absorbed dose to tumor (AR42J xenografts; mouse, in vivo) [Gy]	Total effective dose per injected activity, Blood (AR42J xenografts; mouse, in vivo) [mSv/MBq]	Total effective dose per injected activity, Femur (AR42J xenografts; mouse, in vivo) [mSv/MBq]	Total effective dose per injected activity, Heart (AR42J xenografts; mouse, in vivo) [mSv/MBq]	Total effective dose per injected activity, Intestine (AR42J xenografts; mouse, in vivo) [mSv/MBq]	Total effective dose per injected activity, Kidney (AR42J xenografts; mouse, in vivo)	Total effective dose per injected activity, Liver (AR42J xenografts; mouse, in vivo) [mSv/MBq]	Total effective dose per injected activity, Lung (AR42J xenografts; mouse, in vivo) [mSv/MBq]	Total effective dose per injected activity, Muscle (AR42J xenografts; mouse, in vivo) [mSv/MBq]	Total effective dose per injected activity, Spleen (AR42J xenografts; mouse, in vivo) [mSv/MBq]	Total effective dose per injected activity, Tumor (AR42J xenografts; mouse, in vivo)	Glomerulopathy, percentage of mice with grade 0 ([1]; mouse, in vivo) [%]	Glomerulopathy, percentage of mice with grade 1+ ([1]; mouse, in vivo) [%]	Mice with mild, focal hepatocyte injury ([1]; mouse, in vivo)	Tubular damage, percentage of mice with grade 3+ ([1]; mouse, in vivo) [%]	other results
CSCC[C@H](NC(=O)CN1CCN(CC(=O)O)CCN(CC(=O)O)CCN(CC(=O)O)CC1)C(=O)N[C@H](C(=O)N[C@@H](CCCCNC(=O)CCCC(=O)N[C@H](Cc1ccccc1)C(=O)N[C@H]1CSSC[C@@H](C(=O)N[C@H](C(=O)O)[C@@H](C)O)NC(=O)[C@H]([C@@H](C)O)NC(=O)[C@H](CCCCN)NC(=O)[C@@H](Cc2c[nH]c3ccccc23)NC(=O)[C@H](Cc2ccc(O)cc2)NC1=O)C(=O)O)C(C)C [^225Ac-DOTA-MVK(ε)-TATE, metal not drawn]	5.7	20.4	3.44E+03	4.19E+04	1.06E+04	2.36E+04	1.85 × 10^5 mSv/MBq	1.02E+05	1.95E+04	7.16E+03	2.55E+04	6.64 × 10^5 mSv/MBq	50	50	1 of 6	17	Reduction of kidney dose versus 225Ac-DOTA-TATE (AR42J xenografts; mouse, in vivo): 65 to 70%; Tubular damage, percentage of mice with grade 0 ([1]; mouse, in vivo): 67%; Tubular damage, percentage of mice with grade 1+ ([1]; mouse, in vivo): 17%
C[C@@H](O)[C@H](NC(=O)[C@@H]1CSSC[C@H](NC(=O)[C@@H](Cc2ccccc2)NC(=O)CN2CCN(CC(=O)O)CCN(CC(=O)O)CCN(CC(=O)O)CC2)C(=O)N[C@@H](Cc2ccc(O)cc2)C(=O)N[C@H](Cc2c[nH]c3ccccc23)C(=O)N[C@@H](CCCCN)C(=O)N[C@@H]([C@@H](C)O)C(=O)N1)C(=O)O [^225Ac-DOTA-TATE, metal not drawn, reference compound]	16.2	13.2	4.00E+03	5.86E+04	1.42E+04	3.04E+04	5.27 × 10^5 mSv/MBq	6.47E+04	3.85E+04	9.33E+03	3.41E+04	4.30 × 10^5 mSv/MBq	17	33	1 of 6	33	Glomerulopathy, percentage of mice with grade 2+ ([1]; mouse, in vivo): 17%; Glomerulopathy, percentage of mice with grade 3+ ([1]; mouse, in vivo): 33%; Tubular damage, percentage of mice with grade 2+ ([1]; mouse, in vivo): 50%; Tubular damage, percentage of mice with grade 4+ ([1]; mouse, in vivo): 17%
C[C@@H](O)[C@H](NC(=O)[C@@H]1CSSC[C@H](NC(=O)[C@@H](Cc2ccccc2)NC(=O)CCCC(=O)Nc2cc(COC(=O)N(C)CCNC(=O)CN3CCN(CC(=O)O)CCN(CC(=O)O)CCN(CC(=O)O)CC3)ccc2O[C@@H]2O[C@H](CO)[C@H](O)[C@H](O)[C@H]2O)C(=O)N[C@@H](Cc2ccc(O)cc2)C(=O)N[C@H](Cc2c[nH]c3ccccc23)C(=O)N[C@@H](CCCCN)C(=O)N[C@@H]([C@@H](C)O)C(=O)N1)C(=O)O [^225Ac-DOTA-β-Gal-TATE, metal not drawn]																	Total effective dose per injected activity, Femur (AR42J xenografts; [2]): 7.96E+04 mSv/MBq; Total effective dose per injected activity, Heart (AR42J xenografts; [2]): 1.20E+04 mSv/MBq; Total effective dose per injected activity, Intestine (AR42J xenografts; [2]): 2.87E+04 mSv/MBq; Total effective dose per injected activity, Kidney (AR42J xenografts; [2]): 1.56 × 10^5 mSv/MBq; Total effective dose per injected activity, Liver (AR42J xenografts; [2]): 1.34E+05 mSv/MBq; Total effective dose per injected activity, Lung (AR42J xenografts; [2]): 1.91E+04 mSv/MBq; Total effective dose per injected activity, Muscle (AR42J xenografts; [2]): 1.02E+04 mSv/MBq; Total effective dose per injected activity, Spleen (AR42J xenografts; [2]): 3.37E+04 mSv/MBq; Total effective dose per injected activity, Tumor (AR42J xenografts; [2]): 1.06 × 10^6 mSv/MBq; Total effective dose per injected activity, Blood (AR42J xenografts; 225Ac-labeled, AR42J xenografts, from merged 86Y/225Ac time-activity curves (1, 4, 24, 96 h), alpha factor 5, mean, n = 4–5): 3.93E+03 mSv/MBq; Tumor dose higher than that of 225Ac-DOTA-MVK(ε)-TATE (AR42J xenografts; [3]): 1.59 fold; Tumor dose higher than that of 225Ac-DOTA-TATE (AR42J xenografts; [3]): 2.46 fold; Absorbed dose to kidney (AR42J xenografts; [4]): 4.8 Gy; Absorbed dose to tumor (AR42J xenografts; [4]): 32.5 Gy; Reduction of kidney dose versus 225Ac-DOTA-MVK(ε)-TATE (AR42J xenografts; [4]): ~15%; Tubular damage, percentage of mice with grade 0 ([1]; kidney H&E after two-cycle regimen, 0–4+ scale (normal, minimal, mild, moderate, marked), n = 6): 100%; Glomerulopathy, percentage of mice with grade 0 ([1]; kidney H&E after two-cycle regimen, 0–4+ scale, n = 6): 67%
